{"source": "paper PMC7281375", "about": "“Therapeutic Targeting of Pancreatic Cancer via EphA2 Dimeric Agonistic Agents” (Pharmaceuticals, 2020)", "molecules": {"B1": {"name": "ephrinA1-Fc: dimeric natural ligand of EphA2, Fc dimerized ephrinA1 (protein)", "chain": "DRHTVFWNSSNPKFRNEDYTIHVQLNDYVDIICPHYEDHSVADAAMEQYILYLVEHEEYQLCQPQSKDQVRWQCNRPSAKHGPEKLSEKFQRFTPFTLGKEFKEGHSYYYISKPIHQHEDRCLRLKVTVSGKITHSPQAHDNPQEKRLAADDPEVRVLHSIGHS", "modifications": "left off: Fc, end not stated, kept"}}, "key": {"EphA2 receptor [1]": {"test_system": "EphA2 receptor", "details": "monomeric agents; cited from earlier work", "source_text": "In order to evaluate the ability of each agent to activate the receptor, we tested them in various cellular assays as reported below. Because receptor activation causes its internalization and degradation, we opted to monitor the ability of each agent to reduce EphA2 levels over time, after exposure of cells to test ligands. […] First, we wanted to explore the effect of the linker length between the monomers and therefore tested side by sid ..."}, "EphA2 receptor [2]": {"test_system": "EphA2 receptor", "test": "EphA2 degradation, Western blot of BxPC3 cell lysates", "format": "cell-based", "details": "BxPC3 cells, 1 h, several concentrations", "description": "In order to evaluate the ability of each agent to activate the receptor, we tested them in various cellular assays as reported below. Because receptor activation causes its internalization and degradation, we opted to monitor the ability of each agent to reduce EphA2 levels over time, after exposure of cells to test ligands. […] For these experiments we initially treated HCT116 cells with 10 μM concentration of each agent for 2.5 h, and cells lysates were probed for total EphA2 using anti-EphA2 antibody (1C11A12; Thermo Fisher Scientific) (Figure 3a). […] Because these agents had optimized side chains, we expected these to work at much lower concentrations compared to dimeric agents derived from 135B12 (Table 1).\nFigure 3 Dimeric and tetrameric EphA2 agonistic ligands degrade EphA2 receptor. […] Total ERK1/2 blot was used as a loading control.\nFigure 5 Pharmacological inhibition of EphA2 expression partially impairs migration of pancreatic cancer cells. […] (c) Western blot of BxPC3 cell lysates after exposure for 5 min, 1 h or 24 h to indicated agents. (d) Representative images from treated wells at times 0 and 30 h. **, p < 0.005; ***, p < 0.001. Error bars represent standard deviation. […]"}, "EphA2 receptor [3]": {"test_system": "EphA2 receptor", "test": "EphA2 degradation, Western blot of HCT116 cell lysates", "format": "cell-based", "details": "HCT116 cells, ephrinA1-Fc 1 μg/mL, 2.5 h"}, "WT-BxPC3 cells": {"test_system": "WT-BxPC3 cells", "test": "Scratch wound cell migration assay (IncuCyte S3), WT-BxPC3", "format": "cell-based", "source_text": "The monomeric, unbound EphA2 receptor is known to be pro-oncogenic, inducing cell migration of cancer cells, while ephrinA1-Fc, inducing EphA2 dimer formation can suppressed this activity. To more directly examine the effect EphA2 on pancreatic cancer cell migration we first prepared a stable BxPC3 EphA2 knockout (KO) cell line and monitored its migratory properties using the scratch wound method and live-cell analysis (IncuCyte S3, Sartorius) (Figure 4). Briefly, homogeneous scratch wounds on plated cells were created by a 96-pin mechanical device (WoundMaker, Sartorius, Göttingen, Germany). Subsequently, live-cell imaging was performed to monitor the rate of wound closure. As controls, we also tested wild-type (WT) BxPC3 cells, and each cell type was treated with ephrinA1-Fc, or Fc as control (Figure 4).\nCells were plated at 50 × 10^3 cells/well density in 96-well ImageLock plates (Sartorius). The following day, cells were scratched using the WoundMaker (Sartorius) and washed three times with PBS. Subsequently, cells were treated with the indicated compounds in RPMI-1640 complete media. […] Plates were imaged every two hours using IncuCyte S3 (Sartorius), and relative wound areas were analyzed using the algorithm of the imager cell migration software module."}, "EphA2-KO BxPC3 cells": {"test_system": "EphA2-KO BxPC3 cells", "test": "Scratch wound cell migration assay (IncuCyte S3), EphA2-KO BxPC3", "format": "cell-based", "details": "EphA2-KO BxPC3, ephrinA1-Fc versus Fc", "source_text": "The monomeric, unbound EphA2 receptor is known to be pro-oncogenic, inducing cell migration of cancer cells, while ephrinA1-Fc, inducing EphA2 dimer formation can suppressed this activity. To more directly examine the effect EphA2 on pancreatic cancer cell migration we first prepared a stable BxPC3 EphA2 knockout (KO) cell line and monitored its migratory properties using the scratch wound method and live-cell analysis (IncuCyte S3, Sartorius) (Figure 4). Briefly, homogeneous scratch wounds on plated cells were created by a 96-pin mechanical device (WoundMaker, Sartorius, Göttingen, Germany). Subsequently, live-cell imaging was performed to monitor the rate of wound closure. As controls, we also tested wild-type (WT) BxPC3 cells, and each cell type was treated with ephrinA1-Fc, or Fc as control (Figure 4). […]\nCells were plated at 50 × 10^3 cells/well density in 96-well ImageLock plates (Sartorius). […] Plates were imaged every two hours using IncuCyte S3 (Sartorius), and relative wound areas were analyzed using the algorithm of the imager cell migration software module."}, "BxPC3 cells": {"test_system": "BxPC3 cells", "test": "Cell proliferation during migration study", "format": "cell-based", "details": "BxPC3, treatments of the migration assay", "source_text": "Subsequently, we probed the effect of the pharmacological inhibition of EphA2 by our dimeric agents on the migratory properties of WT-BxPC3 in a similar assay (Figure 5a). […] Of note is that cell proliferation was not affected by either treatment with ephrinA1-Fc or by our agents."}}, "note": "Entries after “also recorded” stand apart in the source; their conditions may differ."}
{"molecule": "COc1ccc(C[C@H](NC(=O)[C@H](C)NC(=O)[C@H](CC(C)C)NC(=O)c2oc3c(OC)c(OC)ccc3c2C)C(=O)N2CCC[C@H]2C(=O)N[C@@H](CC(=O)O)C(=O)N[C@@H](C)C(=O)N[C@H](C(=O)N2C[C@H](O)C[C@H]2C(=O)N[C@@H](Cc2ccc(Cl)cc2)C(=O)N[C@@H](CCCNC(=N)N)C(=O)N2CCC[C@H]2C(N)=O)C(C)C)cc1", "note": "[135H11]", "values": [{"measurement": "concentration at which receptor activation was shown", "setting": "EphA2 receptor [1]", "result": "≥ 100", "unit": "µM"}]}
{"molecule": "COc1ccc(C[C@H](NC(=O)[C@H](C)NC(=O)[C@H](CC(C)C)NC(=O)c2oc3c(OC)c(OC)ccc3c2C)C(=O)N2CCC[C@H]2C(=O)N[C@@H](CC(=O)O)C(=O)N[C@@H](C)C(=O)N[C@H](C(=O)N2C[C@H](O)C[C@H]2C(=O)N[C@@H](Cc2ccc(Cl)cc2)C(=O)N[C@@H](CCCNC(=N)N)C(=O)N2CCC[C@H]2C(=O)NCC(=O)NCCCC[C@H](NC(=O)CNC(=O)[C@@H]2CCCN2C(=O)[C@H](CCCNC(=N)N)NC(=O)[C@H](Cc2ccc(Cl)cc2)NC(=O)[C@@H]2C[C@@H](O)CN2C(=O)[C@@H](NC(=O)[C@H](C)NC(=O)[C@H](CC(=O)O)NC(=O)[C@@H]2CCCN2C(=O)[C@H](Cc2ccc(OC)cc2)NC(=O)[C@H](C)NC(=O)[C@H](CC(C)C)NC(=O)c2oc3c(OC)c(OC)ccc3c2C)C(C)C)C(=O)N[C@@H](CCCCN)C(=O)NCCCC[C@H](NC(=O)[C@H](CCCCN)NC(=O)[C@H](CCCCNC(=O)CNC(=O)[C@@H]2CCCN2C(=O)[C@H](CCCNC(=N)N)NC(=O)[C@H](Cc2ccc(Cl)cc2)NC(=O)[C@@H]2C[C@@H](O)CN2C(=O)[C@@H](NC(=O)[C@H](C)NC(=O)[C@H](CC(=O)O)NC(=O)[C@@H]2CCCN2C(=O)[C@H](Cc2ccc(OC)cc2)NC(=O)[C@H](C)NC(=O)[C@H](CC(C)C)NC(=O)c2oc3c(OC)c(OC)ccc3c2C)C(C)C)NC(=O)CNC(=O)[C@@H]2CCCN2C(=O)[C@H](CCCNC(=N)N)NC(=O)[C@H](Cc2ccc(Cl)cc2)NC(=O)[C@@H]2C[C@@H](O)CN2C(=O)[C@@H](NC(=O)[C@H](C)NC(=O)[C@H](CC(=O)O)NC(=O)[C@@H]2CCCN2C(=O)[C@H](Cc2ccc(OC)cc2)NC(=O)[C@H](C)NC(=O)[C@H](CC(C)C)NC(=O)c2oc3c(OC)c(OC)ccc3c2C)C(C)C)C(N)=O)C(C)C)cc1", "note": "[135I1]", "values": [{"measurement": "EphA2 degradation", "setting": "EphA2 receptor [2]", "result": "not significantly more effective than its dimeric counterpart; also recorded: successfully degraded EphA2 receptor at nanomolar concentrations"}]}
{"molecule": "B1", "values": [{"measurement": "total EphA2 level (anti-EphA2 blot)", "setting": "EphA2 receptor [3]", "result": "very effective in causing EphA2 degradation; also recorded: complete degradation of the receptor"}, {"measurement": "cell migration, relative wound density at 36 h", "setting": "WT-BxPC3 cells; WT BxPC3, 1 μg/mL, versus Fc", "result": "WT cells treated with Fc migrated significantly faster than WT cells treated with ephrinA1-Fc"}, {"measurement": "cell migration, relative wound density after 30 h", "setting": "WT-BxPC3 cells; WT-BxPC3, 1 µg/mL", "result": "significant decrease of cell migration"}, {"measurement": "cell migration, rate of migration over 36 h", "setting": "EphA2-KO BxPC3 cells", "result": "did not significantly decrease the rate of migration"}, {"measurement": "cell proliferation", "setting": "BxPC3 cells", "result": "not affected"}]}
